Experimental data: article PMC4136841, “Is Thymidine Glycol Containing DNA a Substrate of E. coli DNA Mismatch Repair System?”
Substitutions are numbered along the chain they refer to.

Target: T1, MutS (Escherichia coli, UniProt P23909 1-853)
T1 sequence: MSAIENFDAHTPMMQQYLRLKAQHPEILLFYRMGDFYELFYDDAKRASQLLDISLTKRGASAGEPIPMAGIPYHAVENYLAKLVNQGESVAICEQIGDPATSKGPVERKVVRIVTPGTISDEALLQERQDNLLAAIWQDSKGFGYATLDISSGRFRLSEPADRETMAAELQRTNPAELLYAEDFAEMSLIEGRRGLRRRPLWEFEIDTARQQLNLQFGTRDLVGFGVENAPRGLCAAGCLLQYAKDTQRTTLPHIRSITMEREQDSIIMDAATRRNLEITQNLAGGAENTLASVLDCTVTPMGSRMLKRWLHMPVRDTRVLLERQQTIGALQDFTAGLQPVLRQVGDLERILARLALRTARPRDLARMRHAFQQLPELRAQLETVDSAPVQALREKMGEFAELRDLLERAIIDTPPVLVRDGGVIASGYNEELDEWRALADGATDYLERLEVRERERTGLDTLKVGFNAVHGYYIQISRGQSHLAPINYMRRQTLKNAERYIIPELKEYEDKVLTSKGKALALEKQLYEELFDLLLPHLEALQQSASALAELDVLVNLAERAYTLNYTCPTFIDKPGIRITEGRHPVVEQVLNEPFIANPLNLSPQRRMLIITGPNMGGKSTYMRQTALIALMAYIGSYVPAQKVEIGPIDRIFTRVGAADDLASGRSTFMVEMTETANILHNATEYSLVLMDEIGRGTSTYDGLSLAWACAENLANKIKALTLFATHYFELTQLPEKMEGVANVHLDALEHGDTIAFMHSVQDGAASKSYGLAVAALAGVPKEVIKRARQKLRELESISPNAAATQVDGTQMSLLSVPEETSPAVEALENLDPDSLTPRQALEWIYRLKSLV
Assay: EMSA (Scatchard); 1 mM ADP, 5 mM Mg2+; EMSA: 20 mM HEPES pH 8.0, 125 mM KCl, 1 mM ADP, 5 mM MgCl2, 1 mg/ml BSA, 9% glycerol, 37 C 20 min (gel at 4 C); fluorescence: 25 mM Tris-HCl pH 7.5, 125 mM KCl, 5 mM MgCl2, 1 mM ADP, 20 C
Conditions: protein: recombinant, tags: His-tag (Ni-NTA purified), chain copies: 2, label: 5'-32P, blunt

B1: duplex III (G/Tg) (dsDNA)
DNA 1: CAAGCCTATGCCCTCAGCACCCAGGGTGCC
DNA 2: GGCACCTTGGGTGCTGAGGGCATAGGCTTG
modifications: thymidine glycol (5R,6S) at T7 of strand 2
Kd (strand 1 G24 : strand 2 Tg7): 44 ± 2.3 nM

B2: duplex I (G/C) (dsDNA)
DNA 1: B1 DNA 1
DNA 2: B1 DNA 2 with T7C
Kd: 32 ± 3.3 nM

B3: duplex II (G/T) (dsDNA)
DNA 1: B1 DNA 1
DNA 2: B1 DNA 2
Kd (G/T mismatch strand 1 G24 : strand 2 T7): 7 ± 1.5 nM

B4: duplex IV (A/Tg) (dsDNA)
DNA 1: B1 DNA 1 with G24A
DNA 2: B1 DNA 2
modifications: thymidine glycol (5R,6S) at T7 of strand 2
Kd (strand 1 A24 : strand 2 Tg7): 25 ± 3 nM
